From article PMC10113545, “OsWRKY76 positively regulates drought stress via OsbHLH148-mediated jasmonate signaling in rice” come the findings set out here.

Data set [1] addresses T1, GST-OsWRKY76 (Oryza sativa, UniProt Q6EPZ2 1-327).
T1 sequence: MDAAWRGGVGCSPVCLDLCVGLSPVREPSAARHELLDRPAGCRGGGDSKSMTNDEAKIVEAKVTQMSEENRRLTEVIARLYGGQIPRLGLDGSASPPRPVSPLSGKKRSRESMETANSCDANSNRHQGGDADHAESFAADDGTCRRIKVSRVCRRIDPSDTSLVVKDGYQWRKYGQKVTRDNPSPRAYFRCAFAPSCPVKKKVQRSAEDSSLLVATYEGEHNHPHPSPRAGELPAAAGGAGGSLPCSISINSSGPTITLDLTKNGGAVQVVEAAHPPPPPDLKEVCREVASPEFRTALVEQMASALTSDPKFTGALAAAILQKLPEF
Briefly: competition; 10x and 50x molar excess of unlabeled probe reduced the N1 shift; EMSA as in Gao et al. 2019; buffer, salt, pH and temperature not stated. The following applies: protein: recombinant; tags: N-terminal GST (pGEX-4T-3); blunt.

In data set [2] the target is T1, GST-OsWRKY76. Briefly: EMSA; EMSA as in Gao et al. 2019; buffer, salt, pH and temperature not stated. Particulars: protein: recombinant; tags: N-terminal GST (pGEX-4T-3); label: 6-FAM 5' end (strand(s) not specified); blunt. A general note: A gel shift assay detects complexes by their altered migration in electrophoresis.

B1: OsDREB1E unlabeled competitor probe (dsDNA)
DNA 1: GCACGGGTAGTTTTGACCTATAGGAGTGTA
DNA 2: TACACTCCTATAGGTCAAAACTACCCGTGC
Consider B1, for which the binding result with GST-OsWRKY76 [1] is given as “binds”.

B2: OsDREB1E probe (6-FAM) (dsDNA)
DNA 1: B1 DNA 1
DNA 2: B1 DNA 2
Regarding B2, the binding result with GST-OsWRKY76 [2] is on record as “binds”.
